Publication PMC4275594 (Nature Communications, 2014)

Tests used:
Settings in all cases: both partners purified
[1] = target: T1, preformed binary complex of IL-18 wild type and un-tagged IL-18Rα wild type extracellular domain (human, UniProt Q14116 37-193; Q13478 20-329); assay: SPR; BIAcore 3000, 25 °C; C-terminal 6xHis IL-18Rβ (wild type or mutant) immobilised at about 100 RU on a Ni-NTA sensor chip; un-tagged IL-18Rα saturated with 500 nM IL-18 (preformed binary complex) injected as analyte in HBS-P; triplicate
T1 construct: interleukin-18, human, mature IL-18 (residues 1-157); numbers count on: the mature protein; IL-18 receptor alpha, human, extracellular domains, residues 20-329 of NM_003855; also called IL-18 WT/IL-18Rα WT complex; IL-18/IL-18Rα; source: IL-18: E. coli BL21(DE3), purified; IL-18Rα: silkworm larvae haemolymph, purified; un-tagged IL-18Rα saturated with 500 nM IL-18

[2] = target: T2, preformed binary complex of IL-18 wild type and un-tagged IL-18Rα N236Q extracellular domain (human, UniProt Q14116 37-193; Q13478 20-329, N236Q); assay: as above
T2 construct: interleukin-18, human, mature IL-18 (residues 1-157); numbers count on: the mature protein; IL-18 receptor alpha, human, extracellular domains, residues 20-329 of NM_003855; lacks the N-linked sugar chain on N236; also called IL-18WT/IL-18Rα mutant complex; IL18/IL18Rα-N236Q; source: IL-18: E. coli BL21(DE3), purified; IL-18Rα: silkworm larvae haemolymph, purified; un-tagged IL-18Rα saturated …

[3] = target: T3, IL-18WT/IL-18Rα N236Q complex (SPR analyte) (human, UniProt Q14116 37-193; Q13478 20-329, N236Q); assay: SPR; BIAcore 3000, 25 °C, C-terminal 6xHis IL-18Rβ immobilised (~100 RU) on an NTA sensor chip, un-tagged IL-18Rα saturated with 500 nM IL-18 as analyte in HBS-P
T3 construct: human interleukin-18, mature IL-18 (residues 1-157); numbers count on: the mature protein; human IL-18 receptor α, extracellular domains, residues 20-329 of NM_003855, used instead of the un-tagged wild type; The mutation removes the N-linked sugar chain at Asn236; also called N236Q^Rα; source: IL-18: E. coli BL21(DE3), purified; IL-18Rα mutant: silkworm larvae haemolymph, purified; IL-18Rα …

[4] = target: T4, IL-18 WT/IL-18Rα WT complex (SPR analyte) (human, UniProt Q14116 37-193; Q13478 20-329); assay: as above
T4 construct: human interleukin-18, mature IL-18 (residues 1-157); numbers count on: the mature protein; human IL-18 receptor α, extracellular domains, residues 20-329 of NM_003855, printed as un-tagged; also called IL-18/IL-18Rα binary complex; IL-18 WT(control); source: IL-18: E. coli BL21(DE3), purified; IL-18Rα: silkworm larvae haemolymph, purified; un-tagged IL-18Rα saturated with 500 nM IL-18

[5] = target: T5, IL-18 receptor β extracellular domains (residues 15-356), construct for crystallography (human, UniProt O95256-1 15-356); assay: crystal structure; IL-18/IL-18Rα/IL-18Rβ ternary complex, 3.10 Å, one copy in the asymmetric unit, data at 100 K (PDB 3WO4)
T5 construct: human IL-18 receptor β, extracellular domains, residues 15-356 of NM_003853; also called IL-18Rβ; source: Sf9 insect cells, secreted, purified (ion exchange, Ni-NTA, gel filtration with or without HRV 3C treatment)
T5 sequence (looked up): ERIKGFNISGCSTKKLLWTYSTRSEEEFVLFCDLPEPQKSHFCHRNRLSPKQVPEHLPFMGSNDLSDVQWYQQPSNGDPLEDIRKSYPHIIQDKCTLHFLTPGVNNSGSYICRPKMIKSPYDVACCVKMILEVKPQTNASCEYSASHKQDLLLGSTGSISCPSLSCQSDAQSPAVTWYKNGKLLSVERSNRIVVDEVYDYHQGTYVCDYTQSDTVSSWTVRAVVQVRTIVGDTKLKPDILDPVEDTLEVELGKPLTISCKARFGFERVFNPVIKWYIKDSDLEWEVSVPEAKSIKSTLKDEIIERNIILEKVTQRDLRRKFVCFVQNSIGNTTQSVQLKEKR

B1: human IL-18 receptor beta extracellular domain (residues 15-356), C-terminal 6xHis, wild type, from silkworm (receptor, UniProt O95256-1 15-356, looked up)
chain: T5 sequence (looked up)
notes: IL-18 receptor beta, human, extracellular domains, residues 15-356 of NM_003853; also called IL-18Rβ; IL-18Rβ WT; source: silkworm (B. mori) larvae, BmNPV bacmid, haemolymph, purified (ion exchange, Ni-NTA, gel filtration); not shown: 6xHis, C-terminal, kept
Binder B1 has a kon [1] of 11000 M⁻¹ s⁻¹ and a kon [2] of 12000 M⁻¹ s⁻¹.

B2: C-terminal 6xHis tagged IL-18Rβ extracellular domains (residues 15-356), for SPR (domain or fragment, human, UniProt O95256-1 15-356, looked up)
chain: T5 sequence (looked up)
notes: human IL-18 receptor β, extracellular domains, residues 15-356 of NM_003853; also called IL-18Rβ WT; IL-18Rβ WT (control); source: silkworm (B. mori) larvae, BmNPV bacmid, haemolymph, purified as from Sf9; not shown: 6xHis, C-terminal, kept
B2 was tested, and the Kd [3] was 17 nM and the Kd [4] was 15 nM.

B3: IL-18 receptor α extracellular domains (residues 20-329), construct for crystallography (domain or fragment, human, UniProt Q13478 20-329, looked up)
chain: ESCTSRPHITVVEGEPFYLKHCSCSLAHEIETTTKSWYKSSGSQEHVELNPRSSSRIALHDCVLEFWPVELNDTGSYFFQMKNYTQKWKLNVIRRNKHSCFTERQVTSKIVEVKKFFQITCENSYYQTLVNSTSLYKNCKKLLLENNKNPTIKKNAEFEDQGYYSCVHFLHHNGKLFNITKTFNITIVEDRSNIVPVLLGPKLNHVAVELGKNVRLNCSALLNEEDVIYWMFGEENGSDPNIHEEKEMRIMTPEGKWHASKVLRIENIGESNLNVLYNCTVASTGGTDTKSFILVRKADMADIPGHVFTR
modifications: N-linked glycosyl chains at Asn91, 102, 150, 197, 203, 236 and 297 (high-mannose glycans, Sf9)
notes: human IL-18 receptor α, extracellular domains, residues 20-329 of NM_003855; also called IL-18Rα; source: Sf9 insect cells, secreted, purified (ion exchange, Ni-NTA, gel filtration with or without HRV 3C treatment)
B3: binds [5].
